B1: Ribonuclease HI, P0A7Y4 (parent)
chain: MLKQVEIFTDGSCLGNPGPGGYGAILRYRGREKTFSAGYTRTTNNRMELMAAIVALEALKEHCEVILSTDSQYVRQGITQWIHNWKKRGWKTADKKPVKNVDLWQRLDAALGQHQIKWEWVKGHAGHPENERCDELARAAAMNPTLEDTGYQVEV

Variants of: B1
Details: Escherichia coli (strain K12); pH 3; 49.8 °C; Thermal; CD; glycine-HCl 10 mM; reversible: yes; structure 2RN2; whole UniProt chain shown

Variant | ddG of mutation (higher = less stable) [kcal/mol]
Y28F R29H G30A R31H | 0.7
K91R D94E K95G | -1.2
D94R K95G | -1.1
K95A | -0.1
K95N | -0.9
K91R K95G | -1.6
A125T | -0.1
G77A | 0.9

Same assay, conditions: Escherichia coli (strain K12); pH 3; Thermal; CD; glycine-HCl 10 mM; reversible: yes; structure 2RN2; whole UniProt chain shown

Variant | Tm [°C] | change of melting temperature, mutant - wild type (higher = more stable) [°C] | unfolding enthalpy (van 't Hoff) [kcal/mol]
Y28F R29H G30A R31H | 47.5 | -2.3 | 92.5
K91R D94E K95G | 53.8 | 4 | 105
D94R K95G | 53.4 | 3.6 | 127
K95G | 49.8 | 5.7 | 102
K95N | 49.8 | 2.9 | 109
K91R K95G | 55 | 5.2 | 114
A125T | 50.2 | 0.4 | 96.4
G77A | 46.9 | -2.9 | 

Same assay, conditions: Escherichia coli (strain K12); pH 5.5; 52 °C; Thermal; CD; glycine-HCl 10 mM; reversible: yes; structure 2RN2; whole UniProt chain shown

Variant | ddG of mutation (higher = less stable) [kcal/mol]
Y28F R29H G30A R31H | 0.9
K91R D94E K95G | -1.5
A125T | 0

Same assay, conditions: Escherichia coli (strain K12); pH 5.5; Thermal; CD; glycine-HCl 10 mM; reversible: yes; structure 2RN2; whole UniProt chain shown

Variant | Tm [°C] | change of melting temperature, mutant - wild type (higher = more stable) [°C] | unfolding enthalpy (van 't Hoff) [kcal/mol]
Y28F R29H G30A R31H | 48.8 | -3.2 | 80.5
K91R D94E K95G | 57.6 | 5.6 | 86.8
D94R K95G | 57.5 | 5.5 | 102
K91R K95G | 57.8 | 5.8 | 92
A125T | 52 | 0 | 88.8

Same assay, conditions: Escherichia coli (strain K12); pH 3; 50.1 °C; Thermal; CD; glycine-HCl 10 mM; NaCl 0.1 M; reversible: yes; structure 2RN2; whole UniProt chain shown

Variant | ddG of mutation (higher = less stable) [kcal/mol]
A24V | -0.73
K95N | -0.88
A52V | -1.7
Q80L K117R | 0.03
R41C | -0.12
E119V | -0.09
G23A | -0.7
H62D | -0.67

Same assay, conditions: Escherichia coli (strain K12); pH 3; Thermal; CD; glycine-HCl 10 mM; NaCl 0.1 M; reversible: yes; structure 2RN2; whole UniProt chain shown

Variant | Tm [°C] | change of melting temperature, mutant - wild type (higher = more stable) [°C] | unfolding enthalpy (van 't Hoff) [kcal/mol]
A24V | 52.5 | 2.4 | 109
K95N | 53 | 2.9 | 109
A52V | 55.6 | 5.5 | 128
Q80L K117R | 50 | -0.1 | 104
Q80L | 51.1 | 1 | 114
G23A | 52.4 | 2.3 | 99.3
H62D | 52.3 | 2.2 | 118

Same assay, conditions: Escherichia coli (strain K12); pH 5.5; Thermal; CD; Sodium acetate 20 mM; NaCl 0.1 M; reversible: yes; structure 2RN2; whole UniProt chain shown

Variant | Tm [°C] | change of melting temperature, mutant - wild type (higher = more stable) [°C] | unfolding enthalpy (van 't Hoff) [kcal/mol]
A24V | 55.9 | 3.2 | 101
A52V | 60.5 | 7.8 | 87.5
Q80L K117R | 53.5 | 0.8 | 83.1
R41C | 54.3 | 1.6 | 102
Q80L | 53.5 | 0.8 | 94.6
E119V | 55.4 | 2.7 | 94.3
G23A | 54.5 | 1.8 | 91.8
H62D | 52.1 | -0.6 | 97.8

Same assay, conditions: Escherichia coli (strain K12); pH 5.5; 25 °C; GdnHCl; CD; glycine-HCl 10 mM; reversible: yes; structure 2RN2; whole UniProt chain shown

Variant | ddG of mutation (higher = less stable) [kcal/mol] | denaturant m value [kcal/mol/M] | denaturant midpoint (higher = more stable) [M] | unfolding free energy [kcal/mol]
K91R D94E K95G | 0.01 | 4.36 | 2.1 | 9.14

Same assay, conditions: Escherichia coli (strain K12); pH 5.5; 49.8 °C; Thermal; CD; glycine-HCl 10 mM; reversible: yes; structure 2RN2; whole UniProt chain shown

Variant | ddG of mutation (higher = less stable) [kcal/mol]
D94R K95G | -1.5

Same assay, conditions: Escherichia coli (strain K12); pH 5.5; 49.8 °C; Thermal; CD; Sodium acetate 20 mM; reversible: yes; structure 2RN2; whole UniProt chain shown

Variant | ddG of mutation (higher = less stable) [kcal/mol]
K95G | -1.9
K95A | -0.1
K95N | -0.9

Same assay, conditions: Escherichia coli (strain K12); pH 5.5; Thermal; CD; Sodium acetate 20 mM; reversible: yes; structure 2RN2; whole UniProt chain shown

Variant | Tm [°C] | change of melting temperature, mutant - wild type (higher = more stable) [°C] | unfolding enthalpy (van 't Hoff) [kcal/mol]
K95G | 52 | 6.8 | 90.4
K95A | 52 | 0.4 | 96.4
K95N | 52 | 3.2 | 90

Same assay, conditions: Escherichia coli (strain K12); pH 5.5; 52.7 °C; Thermal; CD; Sodium acetate 20 mM; NaCl 0.1 M; reversible: yes; structure 2RN2; whole UniProt chain shown

Variant | ddG of mutation (higher = less stable) [kcal/mol]
K95N | -0.88
R41C | -0.44
E119V | -0.74
